These are literature values, as cited in PMC8061042.

The series has as its target MS1.

Chain of MS1 (main, as listed by the source): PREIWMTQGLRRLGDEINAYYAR

Consider MCL-1 (from UniProt Q07820), for which the equilibrium dissociation constant (Kd) (in general, a measure of binding affinity in units of concentration) is 1.9 nM.
